Values of other authors, collected in paper PMC7431755, “Automated high-content imaging for cellular uptake, from the Schmuck cation to the latest cyclic oligochalcogenides” (Beilstein Journal of Organic Chemistry, 2020).
Read-outs that look alike come from different tables or passages of the source.

System: HGM cells
Protocol: The CP50 value of 7.3 ± 0.5 µM obtained for 25 outperformed the CP50 value of 14.9 ± 0.5 μM of the previously reported cell-penetrating streptavidin, in which four asparagusic acids are covalently bound to the protein through irreversible triazole linkages. The CP50 value of 7.3 ± 0.5 µM of 25 was not far above the CP50 value of 3.1 ± 0.5 µM of HIV Tat, the original CPP [55]. As the uptake efficiency generally decreases with the size, this similarity is particularly impressive, considering that the COC carrying a 52 kDa protein is compared to a small undecapeptide.

Row | Substance | CP50 (CAPA) [µM] | CP50 [µM]
1 | HIV Tat: the original CPP, a small undecapeptide | 3.1 ± 0.5 | 
2 | cell-penetrating streptavidin: previously reported streptavidin with four asparagusic acids covalently bound through irreversible triazole linkages |  | 14.9 ± 0.5
